The values below come from patent publication US20150266962A1 (Pfizer, published 2015).

For assay [1], the target named is T1, recombinant human IL-13 receptor alpha 2 (hIL-13-Rα2) (human, UniProt Q14627 27-343).
T1 construct: Recombinant soluble antigen coated on ELISA plates or used in Biacore; also called rec hIL-13Rα2; rhIL-13Rα2
T1 sequence (looked up): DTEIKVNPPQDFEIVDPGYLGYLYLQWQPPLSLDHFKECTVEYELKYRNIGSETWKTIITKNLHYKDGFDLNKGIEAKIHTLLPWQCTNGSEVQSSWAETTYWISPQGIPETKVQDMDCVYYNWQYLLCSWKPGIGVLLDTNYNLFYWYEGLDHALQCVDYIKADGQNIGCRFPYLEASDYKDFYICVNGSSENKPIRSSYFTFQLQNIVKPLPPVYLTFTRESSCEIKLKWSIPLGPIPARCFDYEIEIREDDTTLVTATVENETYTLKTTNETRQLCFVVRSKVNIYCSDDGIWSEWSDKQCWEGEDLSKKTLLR
In words: direct ELISA on rhIL-13Rα2 (given as ED50).

Assay [2] deals with T1, recombinant human IL-13 receptor alpha …. Description: direct ELISA on rhIL-13Rα2, purified protein (given as ED50).
The target is the same in assay [3]. Description: competition ELISA on plate, competitor biotinylated ch07, purified protein.
Assay [4] has the same target. In words: SPR Biacore, human Fab Capture Kit, 1:1 Langmuir model, pH 7.4. As to the method: (§1) To assess the binding kinetics of the ch07 and ch08 antibodies, SPR (Surface Plasmon Resonance) experiments were conducted on a Biacore® T100 or T200 instrument using a Biacore® human Fab Capture Kit (GE Healthcare). All data was analyzed using the Biacore® T100 evaluation software version 2.0 with a 1:1 Langmuir binding model.

The target is the same in assay [5]. In words: competition ELISA on plate (recombinant IL-13-Rα2), competitor biotinylated ch07.
Assay [6] shares this target. In words: direct ELISA on recombinant hIL-13-Rα2 (given as ED50). Here is the method:
(§2) Chimeric antibodies 07 and 08 (ch07 and ch08) were constructed having murine heavy chain and light chain variable region sequences with human IgG1 heavy chain constant regions and human kappa light chain constant regions using methods known in the art. To assess the binding activity and specificity of ch07 and ch08, a standard direct ELISA protocol was performed utilizing recombinant hIL-13-Rα2 and hIL-13Ra1, receptors for IL-13 cytokine. The binding was detected by horseradish peroxidase (HRP) conjugated goat anti-human IgGKappa.

Assay [7] has as its target T2, recombinant human IL-13 receptor alpha 1 (hIL-13Rα1) (human, UniProt P78552 22-343).
T2 construct: also called hIL-13Ra1
T2 sequence (looked up): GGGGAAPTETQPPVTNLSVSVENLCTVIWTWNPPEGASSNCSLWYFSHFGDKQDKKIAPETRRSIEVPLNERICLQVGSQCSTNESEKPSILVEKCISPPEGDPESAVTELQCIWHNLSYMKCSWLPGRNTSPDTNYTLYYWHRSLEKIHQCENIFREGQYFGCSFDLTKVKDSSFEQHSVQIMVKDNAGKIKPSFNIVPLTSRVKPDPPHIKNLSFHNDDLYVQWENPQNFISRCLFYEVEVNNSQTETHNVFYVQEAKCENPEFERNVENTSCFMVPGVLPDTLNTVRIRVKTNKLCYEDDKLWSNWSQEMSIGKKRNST
In words: direct ELISA on plate-coated recombinant hIL-13Rα1, detected with HRP goat anti-human Ig kappa. Here is the method: as §2

Assay [8] deals with T1, recombinant human IL-13 receptor alpha …. In words: SPR Biacore, human Fab Capture Kit, 1:1 Langmuir model, pH 6.0. Here is the method:
as §1

Assay [9] concerns the target T3, cynomolgus monkey IL-13-Rα2 ECD/TM domain with C-terminal Flag tag, on transfected HEK293 cells (cynomolgus monkey, UniProt Q14627 27-363 (human entry)).
T3 construct: also called cyno-IL-13-Rα2; cyno IL-13Rα2; not shown: Flag tag at the C-terminal end
T3 chain: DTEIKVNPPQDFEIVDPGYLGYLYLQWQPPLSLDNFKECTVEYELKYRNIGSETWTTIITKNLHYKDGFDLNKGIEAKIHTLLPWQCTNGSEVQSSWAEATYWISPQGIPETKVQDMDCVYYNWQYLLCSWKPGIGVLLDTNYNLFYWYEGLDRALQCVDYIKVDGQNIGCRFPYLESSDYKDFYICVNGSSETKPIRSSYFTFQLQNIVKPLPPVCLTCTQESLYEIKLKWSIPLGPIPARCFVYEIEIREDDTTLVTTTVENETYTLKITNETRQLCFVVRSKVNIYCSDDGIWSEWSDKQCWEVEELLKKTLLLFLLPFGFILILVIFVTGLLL
Description: FACS on HEK293 cells transfected with cyno-IL-13-Rα2 (given as ED50). As to the method:
The ECD/TM domain of cyno IL-13-Rα2 fused with Flag tag at the C-terminal end was cloned into the pSMED2 expression vector. HEK293 suspension cells were transiently transfected with cyno-IL-13-Rα2 containing plasmid and pSMED2 vector (as a mock transfection). The cells were harvested 72 hours later and subjected to FACS analysis. 4 antibodies including ch07, ch08, hu08v1.0/1.0 and hu08v1.1/1.1 were tested. The binding on the cell surface cyno-IL-13-Rα2 was detected with R-Phycoerythrin-labeled goat anti-human or mouse IgG.

The target in assay [10] is T1, recombinant human IL-13 receptor alpha …. In words: competition ELISA on coated recombinant hIL-13-Rα2, competitor biotin-ch08. As to the method:
A competition ELISA was performed to assess whether hu08 1.0 and hu08 v1.1 compete with ch08 for IL-13-Rα2 binding. Recombinant hIL-13-Rα2 was coated onto 96-well plates at 50 ul of […] in PBS overnight at 4° C. Plates were then blocked and washed following standard ELISA protocol. A 3-fold serially diluted ch08, hu08 1.0 and hu08 v1.1, and negative control ch07 (2× final concentration) were mixed with biotinylated ch08 (2×EC₅₀). 50 μl of the antibody and biotin-ch08 mixture were added to the plate and incubated for 1 hour at room temperature. The amount of biotin-ch08 bound was detected by HRP conjugated streptavidin.

B1: chimeric antibody ch07 (antibody, human IgG1, V domains shown)
VH: QVQLKESGPGLVAPSQSLSINCTVSGFSLTKYGVHWIRQSPGKGLEWLGVKWAGGSTDYNSALMSRLTISKDNNKSQVFLKMNSLQSDDSAMYYCARDHRDAMDYWGQGTSVTVSS
VL: QVVLTQSPAIMSASPGERVTMTCTASLSVSSTYLHWYHQKPGSSPKLWIYSTSNLASGVPARFSGSGSGTSYSLTISSMEAEDAATYYCHQYHRSPLTFGSGTKLELK
notes: also called chimeric antibody 07; biotin-ch07 (biotinylated form)
For the molecule B1, the EC50 in [1] was found to be 0.217 nM; in [2] it was 0.39 nM; in assay [6] it was 0.15 nM; in assay [9], 1.49 nM. Also, the IC50 in assay [3] and in assay [5] was 2.21 nM each time. For the same molecule, the values for the Kd in [4] and in [8] were 0.648 nM and 5.24 nM, respectively. The values for the koff in assay [4] and in assay [8] were 0.000234 s⁻¹ and 0.000337 s⁻¹, respectively. Besides, the results for the kon in assay [4] and in assay [8] were 361000 M⁻¹ s⁻¹ and 64300 M⁻¹ s⁻¹, respectively. Also, the binding result in [7] was “no binding (tested: about 7 nM)”.

B2: chimeric antibody ch08 (antibody, human IgG1, V domains shown)
VH: EVQLVESGGDLVRPGGSLQLSCAASGFTFSRNGMSWVRQTPDRRLEWVATVSSGGSYIYYADSVKGRFTISRDNARNTLYLQMSSLKSEDTAMYYCARQGTTALATRFFDVWGAGTTVTVSS
VL: DIVMTQSHKFISTSVGDRVSITCKASQDVGTAVAWYQQIPGQSPKLLIYSASYRSTGIPDRFTGSGSGTDFSFIISSVQAEDLALYYCQHHYSAPWTFGGGTTLDIK
notes: also called ch08Hc + Lc; chimeric antibody 08
For the molecule B2, in assay [4], the Kd was 0.964 nM, the koff amounted to 0.000416 s⁻¹ and the kon is 432000 M⁻¹ s⁻¹. For the same molecule, the IC50 in [10] is 1.98 nM. For the same molecule, the EC50 in assay [6] was 0.076 nM. Further, in [7], the binding result is listed as “no binding (tested: about 7 nM)”. Besides, in [8], the equilibrium dissociation constant (Kd) was 5.36 nM, the koff was 0.000381 s⁻¹ and the kon stood at 71200 M⁻¹ s⁻¹. In assay [9], this molecule had an EC50 of 1.81 nM.
